From patent US20230050773A1 (AstraZeneca / MedImmune, published 2023)
Changes are numbered by the printed parent chain.

B1: NB0919 (antibody, V domains shown)
VH: QVQLQESGPGLVKPSDTLSLTCTVSGFSFSTDYWWSWIRQPPGKGLEWIGYIYVGTSGDTYYNPSLKSRVTISVDTSKNQFSLKLSSVTAADTAVYYCAGADNPYDYFNLWGQGTLVTVSS
VL: DIQMTQSPSSLSASVGDRVTITCRASETISGYLNWYQQKPGKAPKLLIYRASSLQSGVPSRFSGSGSGTDFTLTISSLQPEDFATYYCQQGYSYSDTDNVFGGGTKVEIK
notes: Humanized variant of B7 by CDR grafting; also called Clone 919
B2: NB0920 (antibody, V domains shown)
VH: B1 VH
VL: B1 VL with N34A, A43V, S53T, F83V
notes: Humanized variant of B7 by CDR grafting; also called Clone 920
B3: NB0937 (antibody, V domains shown)
VH: EVQLVESGGGLVQPGGSLRLSCAASGFSFSTDYWMSWVRQAPGKGLEWVSSIYVGTSGDTYYADSVKGRFTISRDNSKNTLYLQMDSLRAEDTAIYYCAGADNPYDYFNLWGQGTLVTVS
VL: B1 VL with L11V, N34A, Q55E, D70E, E81D
notes: Humanized variant of B7 by CDR grafting; also called Clone 937
B4: NB0938 (antibody, V domains shown)
VH: B3 VH
VL: B1 VL
notes: Humanized variant of B7 by CDR grafting; also called Clone 938

Columns and labels:
[1] = target: T1, recombinant human LIF (Leukemia Inhibitory Factor) (human, UniProt P15018 23-202); assay: BLI (Octet), antibody on anti-human Fc biosensors, human LIF in solution
T1 construct: also called biotinylated recombinant human LIF
T1 sequence (P15018 23-202 limits assumed, form in doubt): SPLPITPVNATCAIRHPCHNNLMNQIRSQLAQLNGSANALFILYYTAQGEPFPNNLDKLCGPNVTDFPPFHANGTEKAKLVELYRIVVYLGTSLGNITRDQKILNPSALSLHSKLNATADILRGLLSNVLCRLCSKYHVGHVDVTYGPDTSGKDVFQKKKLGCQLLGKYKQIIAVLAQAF
Method: Affinities were determined using biolayer interferometry on the Octet platform. Anti-human Fc biosensors were used to load chimeric B7 and humanized variants, and titrations of recombinant human LIF (200 nM→0 nM) were associated for 180 seconds followed by a 300 second dissociation step. Affinity measurements are recorded in Table 3.

[2] = target: T1, recombinant human LIF (Leukemia …); assay: cell-based or functional assay
[3] = target: T1, recombinant human LIF (Leukemia …); assay: ELISA, coated recombinant human LIF, anti-human Fc HRP detection
Method: Recombinant human LIF was coated on maxisorp plates overnight at 4° C. The next day, plates were blocked with casein blocking buffer for 1 hour at 37° C. Titrations of each antibody were added to the plates and allowed to bind for 1 hour at room temperature. Plates were washed 4× with PBST followed by incubation with an HRP conjugated anti-human Fc secondary for 30 minutes at RT. Plates were then washed again with 4×PBST and then developed using TMB substrate and 1M HCl.

[4] = target: T1, recombinant human LIF (Leukemia …); assay: LIF:LIFR blocking ELISA, coated human LIFR, biotinylated human LIF premixed with antibody
Method: Recombinant human LIFR was coated on maxisorp plates overnight at 4 C. The next day, plates were blocked with casein blocking buffer for 1 hr at 37 C. During this period, titrations of each antibody were mixed with biotinylated recombinant human LIF. Following blocking, the antibody/antigen premix was added to the plates and allowed to incubate for 1 hr at RT. Plates were then washed with 4×PBST and an HRP conjugated avidin secondary reagent was added for 30 min at room temperature. Plates were washed again with 4×PBST and then developed using TMB substrate and 1M HCl.

Row | Binder | Kd [1] [nM] | pSTAT3 inhibition assay IC50 (nM) [2] [nM] | EC50 [3] [nM] | IC50 [4] [nM]
1 | B1 | 19.6 | 52.7 | 0.17 | 
2 | B2 | 9.97 | 38.7 | 0.12 | 
3 | B3 | 5.02 | 7.22 | 0.08 | 16.6
4 | B4 | 10.6 | 11 | 0.13 | 24.4
